Measurements reported in the domain aggregation screens of Martell et al. (2025).

Assay: soluble fraction after stress (log2 fold change); higher = more stays soluble; pooled small domains, quantitative proteomics
Conditions: stress: 75 degC
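Also: 20 min heating vs room temperature control held 20 min.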

Sequence	soluble fraction (log2)
HMFDEDKLIISIGSKVRIIREPYFGTIGKVVELPPELVKMDTEAMLRVAIIKLDDGEKVTIPRANLEVILS	-2.43
HMFDEVKDAARRLAALLDQAGGTLTLNDKSAPEEVAALTGMSKKVFKRALGHLMSRSEVVVADGRITKKD	-0.709
HMFDGRSDAEKTLDLIKTAIDNILKGGAIQEYKIGTRTAKKYDMAELQVLKGEYAAMVAREKQAETMA	-0.412
HMFDGVAAGKPAILDALEDAGGFLPLNSKSSVEEIQASFSFSKRVFKQLIGMLYKERKIVITDDGIRLAD	-0.279
HMFDGYQWLKRDIIRGVYQPEEKLRMSLLTNRYGLGVGPLREALSQLVAEHLVTVVSQKGYRVAPM	-0.387
HMFDKNKPVVVEGENAEVALKKVSKYFNVPTEKLDYTLLGQKSAGLLGIGSKVYQFKVWLKREIP	-0.249
HMFDLENIRLTLARRLNVAAHLRPKYVAGFTLLLKQNFPEQNAEDLLNRLEHNQWLKVNQREIEYSPRLLM	-1.63
HMFDPAKQMQRIRKYAGMNRKEFSEWLNIPYRTMTDWELGNRTMPVYLLELIVYKVNHEIANA	0.588
HMFDREKFIKLGQEFARVAFENVNKRATDRALKTAAKHYGLPSADELLARLGSSEIAARDVVAELYPNL	-0.856
HMFDSYDIYDEAGNTVNTVKGKLSWGHLLEIYDRFDNHIGTVQERVLTFLPKFLMYINGQEIGEIR	-0.164
HMFDVNSMIAANIVAILKKQNRKQIDLAGALQTNKQTISKMLNGSRMINAIELKRIAEFLGVKMEELTKL	-2.23
HMFDVRWEQGYALAAAYAQEYGNLDVPRDYKTADGKKLGRWIQSQEQAYEQKKLSEEQISRLEMIGMQWG	-0.98
HMFEDEPSEREIRISTLLAAFLKQEDGGTAVSRERFLKENSDVAEDLQILLEMADMIQEMAGP	-0.546
HMFEKIDINFADIHQLKGLPLNSEQINSIIEYRNQNGFIENIYDLKNVNGISIDKVHELKSYIFIIDV	-2.58
HMFENPRALLEMMISLGNEQGLINMARDIVSAGEFRRLELAAGGDRRKLARMLIDHLVEVAPRLP	-0.915
HMFEQFEVENLQELQQEWGDKFNHNLEMARRAFMNFATPEAVKVLEETGMGNHPELLKVFARIGEVLAED	-0.968
HMFERINLIGVNGTTKKRSALVRLLDGEIVKIGVGDSLNGGQVVDISPATLTYLKSGKSIMLTLPK	-1.79
HMFGQRLRLARKRAGLSMQALAQRMSPPVTAQAISKYEADRMMPSSAVLVGLGKALGVSLDFLMGGQ	-2.14
HMFHFELNAAKQALEDRKTIDRAKGILMRQRGMSEDDAYKLLRTTAMSQNRKVIDVAQALVTAADLL	-0.632
HMFINTVELGRAIKRRREELGLSLRDVADVTNVSASTLSRIENGTGKPDADNIARLTGWLDMPIDRVM	-0.161
HMFIRINQTQNSPRKSVQIVESKRDGHKVRTKILRHVGIAMDDVELQKLKSLAQDIIAKMTVETENASKQ	-0.529
HMFKINQKVKLIAPLPYLKTSENMPMLRPPDLVAIDEIGEVLSLKSPETVEVRFRRGSFLIDIDKLEKVD	-1.77
HMFKYLLDTNIVIYVIKKRPIEVMGVFNQNANRMAISAITFSELQHGAEKSVRVQENLNAIEEFTTLIDI	-0.0448
HMFKYRELLDWAKNRFDDLEVSIAPKALALLVESIGTDLRLLDSEIQKLSMYKPLEMISTNDVEDLVA	-1.01
HMFLTDHEVSKVARKRAHAEYLSSLSWRQRTFGDHGERSKNFEAWYKEHSHLYETEKLYKELYKN	-1.03
HMFLTPLEEARLVIEEIVIPKNIAVDLSPRPSALRKQQHELIAHYQLKSFSVGNERTKRLRILPKVI	0.229

Sequence	soluble fraction (log2)
HMFMLQAKRVPVSELENFKGIVAEDVVSQSRALILPRGSNLSWLSSSAMQNLSTRLALEGVESISIYL	-2.68
HMFMVAGHLSEKNGYFYAVINYNDSLGNRKTKWMSTGLTVKGNKKRAEAILAEKRRTFQPDEPV	-1.71
HMFNDPTMEDALVNLKGITNEVLSYLSSSKIKKLEELAEMSVPELKDIVENISDDEASALIMEARKPWF	-0.373
HMFNEFEDIPDIISAEGIDPAMREEVAANLKKYYKNPDAMLALAPLEREYYEKLVGILSEKIELKKEN	0.802
HMFNFPEEVRVQLAKSEQLRNLLIPMSETVRDALSGEELWFGRTIFNTTSKKIESWTNPGVWVE	-1.39
HMFNIIARQEIDEILYEYKIENSEDYKNRDPEELAEIYENIKTVQENHDLSDDDVEELLKSIFSDY	-1.25
HMFNKTKVPNFIDMNYYEEIEGNSEYDKFNFADPITKNDDTKAPGTVIDQTPEKGTRIDEEKTVIQLTIA	0.114
HMFNRAVSDNEALQVREHFDRDATVMSLAKKYGVSTVTIQRILLGKTYRNVGGPLFDKATLKKRMGN	-1.2
HMFNVKAYEKAVKSYITKRKPLGEALDEEIMDELSVKFGIVDDALEDLFKQIQDAGISIVDKDGNPSPLAL	-0.792
HMFPELEPDEQLIADLLRKTNNLQINIITVRTGLPINRVTALLFQMEMKGVVRPLAGGTYHLLV	-2.14
HMFPELSPEEQLIVEVLSKTNDLQVNLISVKTNIDISRLTSLLFTLEMKGVIKTFAGGMYHLL	-1.19
HMFPSLSPEEQAVVDVLQRNNDLQINMLSVQSGLTISRLTALLFQLEMKGVIKPLAGGMYHLL	-0.711
HMFPTLSPEEQRIVDQLAKENDLQANVIALRTALTIPQISALLFSLEMKGMVRLYAGGTYHLI	-4.6
HMFQPEQISKLNELETLVLDFIIKSPDKVQKATIRSLATQLHVSTTTIVRMSTKLGFNGWSELKFFLKNQS	-1.93
HMFRDFSETLLRKLQAAGGFLPFTDKTDAEAIAEHFQVSKKTFKRAVGTLYKQRRILIDDEGITLIG	-1.59
HMFRPDYYEILQVDRHASPEVITAAYRQLLSIYNSEQDGNKQMIKLIQEAYGVLGDSQDRWLYDSWLDNN	-1.34
HMFRSNAERAAHLASALPRAEAELAALQARGAATSENIYLRSSYFDALRYTEELRAAKRAQDALQGA	0.195
HMFSAASSQISSYVRSVVDKAQTYEQAYEILAKNPLGFKLDALEDELFRIIANAEILGADDDE	-0.976
HMFSNATISGLKAGALVRVYNISGVAVSTLTADAEGKVSVDLNNLPKGVYILSTPSKSFKVLN	-2.65
HMFSWRQHLDHFGFSDEIKKRLADAVFLNDDWNEIDRGVLTKEELLARFIENDPGIEKEIYMVMENIN	-0.835
HMFYPIAHTLTKLNIRSGPGEQYQKLATFENNHDLVVLTQQNEWVQVRGKSDEQVIIGWVHSSFLSPT	-2.8
HMFYQLTENQRRILSSLEQNPRVSAAHLAEEIGISSRKVENNLKKLKEIGLLQRHGSPRKGYWSINQGW	-0.938
HMGAAAQLLHAVVLRVPAEDTMKFVSETPELRRYLGAPLGPTAALVRPGQEQELAAALQAHGILVEFDE	-0.45
HMGAAITEAEAKQIALDHAGVSESETERMRVKLGRDDGVQEYEVNFYVGNREYDYDINAATGEIRSHDSE	0.107
HMGADPTTWPEIDAFVGRVAVTATGLFPSGQVEIDGRRFEARLAFGVAEPGARVVVRRRTDFGLLVEKETR	-2.38
HMGADRLVGMTAIVTATIDPNDTDRKGRVQVEGEVWSALSDGRLIITEGSKVRITEMHGTRVRVEAI	-0.685

Sequence	soluble fraction (log2)
HMGAEWTEMRVWTSTSGSKVTAEASSLTNGQVTLETKSGKRITLSIRKLVEADQKFLEAHFSK	-1.33
HMGAGLLEPEPLKIEIQETQERLQKLQKALERDTETADSKERIKRAIEAHKARISQLQGLIE	0.219
HMGAKVFTVPNLIGKYAIEAGIILKKEGLSEGEVKEENSDKYAAGQIIDQYPAADSPAKENDKINYVVSIG	-0.066
HMGANSAYMAMRDRIQQRLLAELSPGVTRSDTAEVRRVVERIFNETTAELGLPLSRLERNDIFDLVLADIL	-1.85
HMGAPLAVGDSVRVVVSGPRAFVYTAPNGALSGAVRNGAAFTVLELSPDNTWARIGSGEWIKVEFLATG	-0.919
HMGATYSQFLDQVDGGNVQKVTFSGDMRSGTNQISYTTRSGQSATITAPMDRDLINILRAKNVEIVQEEP	0.232
HMGAWQQTGFFRNRENAESLAEVLRQRGFSPVVREDTRPSGTVYYAVLVPDDGTTAARLKDAGIDSYPV	0.121
HMGDDYFTILGIERDATTDEIRSAYRRLSKKIHPDAQGSSALFRQVQEAYETLIDPSSRARYVAELNASQG	0.00161
HMGDERDRLLLARGKRIYQELIGSDRENVAAALREFEAVLAVNNRRAIHVMRQRLAELFGVYEEFLNEEFL	-4.51
HMGDEVAVTEILVKVGDTVEADQSLLTVEGDKASMEVPAPFAGVVKAIQVQLGDKVVTGSPIMLFEV	0.073
HMGDFNYVMPDFRGLEAHDVSSFLNRNGFLLRPTEHEVSFTQRPGLILMHYPEPGYPFSRSSPITLVVS	-0.947
HMGDGMEVWVNGSPVNLTGKDSFIFVDIFDFIDFDLTASKGRLIVIKVNGEYAEYTRPLHNGDTIEIYWEE	0.0346
HMGDGRVGVITASIAYEYAKEVFPEGTSFLKLGLTFPLPMDLIRDFASKVEKLYVIEELEPL	-0.122
HMGDHYTALGLSIDATPEEIRSAYFLAARRSHPDANPDAQTTEWFLRVQEAYDILSNPRRRAEYDASLP	-0.6
HMGDKRPIAVGDYVKLEGQDTPGQVLSISGKNATVGFGMLKTTVKLDRLRHTMAKPQTGASAGVR	-0.293
HMGDKVTIPNLIDMKLTDAQNQYKPQGFSIVKNGERESDKEAGTILEQDKAAGTEISGKDIRIFVVVSSGS	0.0688
HMGDLAAAGNHTLEVMGFPQHPDESYRHFVGNGIPKLIERMLPAGHDKETEQKAYDIFMEYYSAHK	0.609
HMGDPMAIMQLSSNTTPEYWEAYQKYHIQEYEQSNFIRYVNGISVLDDDFVDKVLITIDQHGRIFSELKS	-3.21
HMGDSEMPVSEVVRLAKLDQISSIEISGTKLTIITNNLETYTSRIEENSTIIEILQRAGVDIGGLEIYPHG	-1.53
HMGDVSGFLRGVLADGPVPAKTVFSEASGAGYSRDQIQRAARKIGVERRKTGMAGGWVWELEP	-0.148
HMGEAYVVPNVKNKTLGEAQLALHNQKLEGLVVDSSYVKGLPDGMILDQNPAGGARVKEGRTIYLTITTS	-0.0978
HMGEDFPYVAYATDSVRLRSKPSSSGDILAVIRQGDAVLITGSDGNYKIVEYEGRKGYVISAFLSQTP	-1.15
HMGEDLTIDQLAAEVDMTVRNIRAHQARGLLPPPTIKGRIGYYGPLHRRRLQQIRAMQEEGLNLAAIAKVV	-0.889
HMGEDPYQMLGLTRQASDEEVRLAWRKLMRENHPDSLASRGVPQEFVKRATEQVAQINAAWDRIKRERG	-0.25
